Measured values reported in patent publication US20240270821A1, “GIP/GLP1/GCG TRI-RECEPTOR AGONISTS AND USES THEREOF” (priority 2023, published 2024).
Substitutions are numbered along the chain they refer to.

T1: human GIP receptor (human) (UniProt P48546)
T1 sequence (looked up): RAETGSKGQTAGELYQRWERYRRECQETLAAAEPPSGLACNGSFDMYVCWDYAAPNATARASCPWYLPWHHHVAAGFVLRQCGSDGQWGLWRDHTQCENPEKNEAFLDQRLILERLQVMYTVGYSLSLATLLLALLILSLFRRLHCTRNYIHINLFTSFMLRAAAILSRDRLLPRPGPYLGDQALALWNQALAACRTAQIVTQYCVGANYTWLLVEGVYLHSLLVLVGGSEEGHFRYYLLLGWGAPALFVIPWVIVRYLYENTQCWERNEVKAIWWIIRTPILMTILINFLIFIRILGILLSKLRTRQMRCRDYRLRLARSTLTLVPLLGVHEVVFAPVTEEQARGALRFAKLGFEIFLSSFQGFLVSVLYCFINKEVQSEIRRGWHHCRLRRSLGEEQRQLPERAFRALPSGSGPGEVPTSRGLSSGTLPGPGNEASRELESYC

B1: Example 205 (peptide)
chain: YXQGTFTSDFSXXLDKKAQXAFIEYLLEAGPSSGAPPPSGT
modifications: Aib, Orn, αMeL, D-Ala; acylated lysine; amide; synthetic construct; SITE 2: note = 2-Aminoisobutyric Acid; SITE 12: note = L-ornithine; SITE 13: note = alpha-methyl-leucine; SITE 17: note = Lysine is chemically modified through conjugation of the epsilon-amino group of the Lysine side chain with (gamma-Glu)3-CO-(CH2)16-CO2H; SITE 20: note = 2-Am
B2: Example 232 (peptide)
chain: B1 chain with X12Q, L27I, A29X, P31E, T41S
modifications: non-natural residues (Aib, αMeL, αMe4Pal); lipidated K; C-terminal amide; synthetic construct; SITE 2: note = 2-Aminoisobutyric Acid; SITE 13: note = alpha-methyl-leucine; SITE 17: note = Lysine is chemically modified through conjugation of the epsilon-amino group of the Lysine side chain with (2-[2-(2-Amino-ethoxy)-ethoxy]-acetyl)-(gamma-Glu)-CO-(CH2) 16-CO2H; SITE 20: n
B3: Example 242 (peptide)
chain: B1 chain with A29X, P31X, T41S
modifications: Aib, Orn, αMeL, 4Pal; AEEA-γGlu-C18 diacid on Lys; amide; synthetic construct; SITE 2: note = 2-Aminoisobutyric Acid; SITE 12: note = L-ornithine; SITE 13: note = alpha-methyl-leucine; SITE 17: note = Lysine is chemically modified through conjugation of the epsilon-amino group of the Lysine side chain with (2-[2-(2-Amino-ethoxy)-ethoxy]-acetyl)-(gamma-Glu)
B4: Example 230 (peptide)
chain: B1 chain with X12R, L27I, A29X, P31E, T41S
modifications: non-natural residues, AEEA-γGlu-C18 diacid acyl on K, C-terminal amide; synthetic construct; SITE 2: note = 2-Aminoisobutyric Acid; SITE 13: note = alpha-methyl-leucine; SITE 17: note = Lysine is chemically modified through conjugation of the epsilon-amino group of the Lysine side chain with (2-[2-(2-Amino-ethoxy)-ethoxy]-acetyl)-(gamma-Glu)-CO-(CH2) 16-CO2H; SITE 20: n
B5: Example 250 (peptide)
chain: B1 chain with Y25W, A29G, S39T, T41S
modifications: synthetic construct; SITE 2: note = 2-Aminoisobutyric Acid; SITE 12: note = L-ornithine; SITE 13: note = alpha-methyl-leucine; SITE 17: note = Lysine is chemically modified through conjugation of the epsilon-amino group of the Lysine side chain with (2-[2-(2-Amino-ethoxy)-ethoxy]-acetyl)-(gamma-Glu)
B6: Example 211 (peptide)
chain: B1 chain with T41X
modifications: non-natural residues, acylated Lys, C-terminal amide; synthetic construct; SITE 2: note = 2-Aminoisobutyric Acid; SITE 12: note = L-ornithine; SITE 13: note = alpha-methyl-leucine; SITE 17: note = Lysine is chemically modified through conjugation of the epsilon-amino group of the Lysine side chain with (2-[2-(2-Amino-ethoxy)-ethoxy]-acetyl)-(gamma-Glu)
B7: Example 239 (peptide)
chain: B1 chain with A29X, A35X, T41S
modifications: Aib, Orn, alpha-methyl-Leu, lipidated Lys, C-terminal amide; synthetic construct; SITE 2: note = 2-Aminoisobutyric Acid; SITE 12: note = L-ornithine; SITE 13: note = alpha-methyl-leucine; SITE 17: note = Lysine is chemically modified through conjugation of the epsilon-amino group of the Lysine side chain with (2-[2-(2-Amino-ethoxy)-ethoxy]-acetyl)-(gamma-Glu)
B8: Example 217 (peptide)
chain: B1 chain with X12K, L27I, A29X, P31E, T41E
modifications: Aib, αMeL, acylated Lys (AEEA-γGlu-C18 diacid), C-terminal amide; synthetic construct; SITE 2: note = 2-Aminoisobutyric Acid; SITE 13: note = alpha-methyl-leucine; SITE 17: note = Lysine is chemically modified through conjugation of the epsilon-amino group of the Lysine side chain with (2-[2-(2-Amino-ethoxy)-ethoxy]-acetyl)-(gamma-Glu)-CO-(CH2) 16-CO2H; SITE 20: n
B9: Example 224 (peptide)
chain: YXQGTFTSDXSRXLDKKAQXAFIEYLIEXGESSGAPPPSGS
modifications: non-natural residues, C-terminal amide, acylated Lys with fatty diacid; synthetic construct; SITE 2: note = 2-Aminoisobutyric Acid; SITE 10: note = 3-(4-Pyridyl)-L-alanine; SITE 13: note = alpha-methyl-leucine; SITE 17: note = Lysine is chemically modified through conjugation of the epsilon-amino group of the Lysine side chain with (2-[2-(2-Amino-ethoxy)-ethoxy]-acetyl)
B10: Example 226 (peptide)
chain: B9 chain with R12Q
modifications: non-natural residues, lipidated Lys, C-terminal amide; synthetic construct; SITE 2: note = 2-Aminoisobutyric Acid; SITE 10: note = 3-(4-Pyridyl)-L-alanine; SITE 13: note = alpha-methyl-leucine; SITE 17: note = Lysine is chemically modified through conjugation of the epsilon-amino group of the Lysine side chain with (2-[2-(2-Amino-ethoxy)-ethoxy]-acetyl)
B11: Example 225 (peptide)
chain: B9 chain with S41E
modifications: non-natural residues, AEEA-γGlu-C18 diacid acyl on K, C-terminal amide; synthetic construct; SITE 2: note = 2-Aminoisobutyric Acid; SITE 10: note = 3-(4-Pyridyl)-L-alanine; SITE 13: note = alpha-methyl-leucine; SITE 17: note = Lysine is chemically modified through conjugation of the epsilon-amino group of the Lysine side chain with (2-[2-(2-Amino-ethoxy)-ethoxy]-acetyl)
B12: Example 227 (peptide)
chain: B9 chain with R12Q, S41E
modifications: Aib, 4Pal, αMeL, αMe4Pal; K acylated AEEA-γGlu-C18 diacid; amide; synthetic construct; SITE 2: note = 2-Aminoisobutyric Acid; SITE 10: note = 3-(4-Pyridyl)-L-alanine; SITE 13: note = alpha-methyl-leucine; SITE 17: note = Lysine is chemically modified through conjugation of the epsilon-amino group of the Lysine side chain with (2-[2-(2-Amino-ethoxy)-ethoxy]-acetyl)

The binders below were run against hGLP-1R (Homo sapiens, UniProt P43220) (assay: cell-based or functional assay).
Chain of hGLP-1R (P43220 24-463): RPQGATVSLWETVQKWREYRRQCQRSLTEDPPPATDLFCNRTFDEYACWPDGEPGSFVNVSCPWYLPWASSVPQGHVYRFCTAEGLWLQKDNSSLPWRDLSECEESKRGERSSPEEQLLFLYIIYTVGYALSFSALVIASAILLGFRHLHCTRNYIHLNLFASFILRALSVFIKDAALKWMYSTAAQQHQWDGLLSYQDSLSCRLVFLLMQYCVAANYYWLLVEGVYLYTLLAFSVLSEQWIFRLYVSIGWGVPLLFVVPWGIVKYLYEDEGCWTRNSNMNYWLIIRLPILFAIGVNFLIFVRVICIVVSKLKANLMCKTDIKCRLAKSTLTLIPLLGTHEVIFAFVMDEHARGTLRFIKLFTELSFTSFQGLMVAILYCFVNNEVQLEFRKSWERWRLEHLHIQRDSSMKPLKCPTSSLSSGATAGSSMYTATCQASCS

Binder | Relative cAMP EC50 | cAMP Rel EC50, nM (1% HSA) | cAMP Rel EC50 (in the presence of 1% HSA)
B1 | 2.71 nM | 234 nM | 
B2 | 0.819 nM | 226 nM | 
B3 | 3.42 nM | 242 nM | 
B4 | 0.937 nM |  | 
B5 | 2.08 nM |  | 194 nM
B6 | 1.23 nM | 234 nM | 
B7 | 2.9 nM | 419 nM | 
B8 | 0.667 nM | 130 nM | 
B9 | 1.89 nM | 333 nM | 
B10 | 1.97 nM | 354 nM | 
B11 | 2.44 nM | 438 nM | 
B12 | 2.34 nM | 418 nM | 

The binders below were run against human GLP-1R (SNAP-GLP-1R expressed in HEK293 cells) (human) (UniProt P43220) (assay: cell-based or functional assay).
Chain of human GLP-1R (SNAP-GLP-1R expressed in HEK293 cells) (human) (P43220 24-463): as above

Binder | GLP1R Internalization EC50 | Internalization % TOP
B1 | 49.4 nM | 67.7%
B2 | 44.7 nM | 45.5%
B3 | 56 nM | 38.2%
B4 | 34.4 nM | 31.2%
B5 | 97 nM | 45%
B6 | 57.4 nM | 26.9%
B7 | 72.6 nM | 42.9%
B8 | 27.6 nM | 58.2%
B9 | 32.2 nM | 61.9%
B10 | 29.1 nM | 59.3%
B11 | 26 nM | 56.7%
B12 | 114 nM | 59.4%

These binders were tested against human glucagon receptor (human) (UniProt P47871) (assay: cell-based or functional assay).
Chain of human glucagon receptor (human) (P47871 26-477): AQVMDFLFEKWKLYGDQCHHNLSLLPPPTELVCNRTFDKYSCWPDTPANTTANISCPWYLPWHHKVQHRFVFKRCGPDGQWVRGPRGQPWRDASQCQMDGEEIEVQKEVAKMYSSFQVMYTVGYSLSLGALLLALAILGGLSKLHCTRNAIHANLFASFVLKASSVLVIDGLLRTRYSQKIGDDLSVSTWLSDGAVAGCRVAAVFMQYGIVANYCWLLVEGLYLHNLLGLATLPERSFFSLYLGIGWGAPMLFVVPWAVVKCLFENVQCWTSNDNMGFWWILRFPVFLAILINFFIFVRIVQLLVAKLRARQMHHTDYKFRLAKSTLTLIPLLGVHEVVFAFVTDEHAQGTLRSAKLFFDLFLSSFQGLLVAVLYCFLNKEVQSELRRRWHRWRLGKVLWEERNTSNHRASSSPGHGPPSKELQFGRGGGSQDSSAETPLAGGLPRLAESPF

Binder | Relative cAMP EC50 | cAMP Rel EC50, nM (1% HSA) | cAMP Rel EC50 (in the presence of 1% HSA)
B1 | 8.98 nM | 397 nM | 
B2 | 2.42 nM | 482 nM | 
B3 | 3.5 nM | 484 nM | 
B4 | 1.61 nM |  | 
B5 | 3.81 nM |  | 201 nM
B6 | 2.05 nM | 370 nM | 
B7 | 2.14 nM | 693 nM | 
B8 | 5.11 nM | 1570 nM | 
B9 | 1.91 nM | 452 nM | 
B10 | 3.08 nM | 763 nM | 
B11 | 2.36 nM | 561 nM | 
B12 | 4.22 nM | 937 nM | 

What follows are binders tested against T1, human GIP receptor (human) (assay: cell-based or functional assay).

Binder | Relative cAMP EC50 | cAMP Rel EC50, nM (1% HSA) | cAMP Rel EC50 (in the presence of 1% HSA)
B1 | 0.16 nM | 24.4 nM | 
B2 | 0.102 nM | 24.6 nM | 
B3 | 0.0916 nM | 5.94 nM | 
B4 | 0.0909 nM |  | 
B5 | 0.154 nM |  | 11.7 nM
B6 | 0.116 nM | 20.6 nM | 
B7 | 0.0503 nM | 12 nM | 
B8 | 0.0897 nM | 15 nM | 
B9 | 0.114 nM | 21.5 nM | 
B10 | 0.127 nM | 32.2 nM | 
B11 | 0.213 nM | 40.2 nM | 
B12 | 0.17 nM | 39.7 nM | 
